Reference: patent publication US20170015742A1 (published 2017)

B1: 4G8.3-SL-9E8.4E DVD-Ig (PR-1575834) (bispecific antibody, human IgG1, kappa, L234A L235A)
heavy: EVQLVQSGSELKKPGASVKVSCKASGYTFTNYGMYWVRQAPGQGLEWMGWINTETGKPTYADDFKGRFVFSLDTSVSTAYLQISSLKAEDTAVYYCARTNYYYRSYIFYFDYWGQGTMVTVSSASTKGPEVTLRESGPALVKPTQTLTLTCTFSGFSLSTYGMGVGWIRQPPGKALEWLANIWWDDDKYYNPSLKNRLTISKDTSKNQVVLTMTNMDPVDTATYYCARIESIGTTYSFDYWGQGTMVTVSSASTKGPSVFPLAPSSKSTSGGTAALGCLVKDYFPEPVTVSWNSGALTSGVHTFPAVLQSSGLYSLSSVVTVPSSSLGTQTYICNVNHKPSNTKVDKKVEPKSCDKTHTCPPCPAPEAAGGPSVFLFPPKPKDTLMISRTPEVTCVVVDVSHEDPEVKFNWYVDGVEVHNAKTKPREEQYNSTYRVVSVLTVLHQDWLNGKEYKCKVSNKALPAPIEKTISKAKGQPREPQVYTLPPSREEMTKNQVSLTCLVKGFYPSDIAVEWESNGQPENNYKTTPPVLDSDGSFFLYSKLTVDKSRWQQGNVFSCSVMHEALHNAYTQKSLSLSPGK
light: DTVLTQSPATLSLSPGERATLSCRASESVSTHMHWYQQKPGQAPRLLIYGASNLESGVPARFSGSGSGTDFTLTISSLEPEDFAVYFCQQSWNDPFTFGQGTKLEIKRTVAAPSVFIFPPEFVLTQSPGTLSLSPGERATLSCERSSGDIGESYVSWYQQKPGQAPRLVIYADDQRPSGIPDRFSGSGSGTDFTLTISRLEPEDFAVYYCQSYDINIDIVFGGGTKVEIKRTVAAPSVFIFPPSDEQLKSGTASVVCLLNNFYPREAKVQWKVDNALQSGNSQESVTEQDSKDSTYSLSSTLTLSKADYEKHKVYACEVTHQGLSSPVTKSFNRGEC
B2: CODV009 cross-over DVD-Ig (PR-1571821) (bispecific antibody, human IgG1, kappa, L234A L235A)
heavy: EVQLVQSGSELKKPGASVKVSCKASGYTFTNYGMYWVRQAPGQGLEWMGWINTETGKPTYADDFKGRFVFSLDTSVSTAYLQISSLKAEDTAVYYCARTNYYYRSYIFYFDYWGQGTMVTVSSGEVTLRESGPALVKPTQTLTLTCTFSGFSLSTYGMGVGWIRQPPGKALEWLANIWWDDDKYYNPSLKNRLTISKDTSKNQVVLTMTNMDPVDTATYYCARIESIGTTYSFDYWGQGTMVTVSSGGASTKGPSVFPLAPSSKSTSGGTAALGCLVKDYFPEPVTVSWNSGALTSGVHTFPAVLQSSGLYSLSSVVTVPSSSLGTQTYICNVNHKPSNTKVDKKVEPKSCDKTHTCPPCPAPEAAGGPSVFLFPPKPKDTLMISRTPEVTCVVVDVSHEDPEVKFNWYVDGVEVHNAKTKPREEQYNSTYRVVSVLTVLHQDWLNGKEYKCKVSNKALPAPIEKTISKAKGQPREPQVYTLPPSREEMTKNQVSLTCLVKGFYPSDIAVEWESNGQPENNYKTTPPVLDSDGSFFLYSKLTVDKSRWQQGNVFSCSVMHEALHNAYTQKSLSLSPGK
light: EFVLTQSPGTLSLSPGERATLSCERSSGDIGDSYVSWYQQKPGQAPRLVIYADDQRPSGIPDRFSGSGSGTDFTLTISRLEPEDFAVYYCQSYDINIDIVFGGGTKVEIKGGGSGGGDTVLTQSPATLSLSPGERATLSCRASESVSTHMHWYQQKPGQAPRLLIYGASNLESGVPARFSGSGSGTDFTLTISSLEPEDFAVYFCQQSWNDPFTFGQGTKLEIKGGGSGRTVAAPSVFIFPPSDEQLKSGTASVVCLLNNFYPREAKVQWKVDNALQSGNSQESVTEQDSKDSTYSLSSTLTLSKADYEKHKVYACEVTHQGLSSPVTKSFNRGEC
B3: CODV011 cross-over DVD-Ig (PR-1575521) (bispecific antibody, human IgG1, kappa, L234A L235A)
heavy: EVQLVQSGSELKKPGASVKVSCKASGYTFTNYGMYWVRQAPGQGLEWMGWINTETGKPTYADDFKGRFVFSLDTSVSTAYLQISSLKAEDTAVYYCARTNYYYRSYIFYFDYWGQGTMVTVSSGGGGSGGGGSEFVLTQSPGTLSLSPGERATLSCERSSGDIGDSYVSWYQQKPGQAPRLVIYADDQRPSGIPDRFSGSGSGTDFTLTISRLEPEDFAVYYCQSYDINIDIVFGGGTKVEIKGGGSGASTKGPSVFPLAPSSKSTSGGTAALGCLVKDYFPEPVTVSWNSGALTSGVHTFPAVLQSSGLYSLSSVVTVPSSSLGTQTYICNVNHKPSNTKVDKKVEPKSCDKTHTCPPCPAPEAAGGPSVFLFPPKPKDTLMISRTPEVTCVVVDVSHEDPEVKFNWYVDGVEVHNAKTKPREEQYNSTYRVVSVLTVLHQDWLNGKEYKCKVSNKALPAPIEKTISKAKGQPREPQVYTLPPSREEMTKNQVSLTCLVKGFYPSDIAVEWESNGQPENNYKTTPPVLDSDGSFFLYSKLTVDKSRWQQGNVFSCSVMHEALHNAYTQKSLSLSPGK
light: EVTLRESGPALVKPTQTLTLTCTFSGFSLSTYGMGVGWIRQPPGKALEWLANIWWDDDKYYNPSLKNRLTISKDTSKNQVVLTMTNMDPVDTATYYCARIESIGTTYSFDYWGQGTMVTVSSGGGGSGGGGSDTVLTQSPATLSLSPGERATLSCRASESVSTHMHWYQQKPGQAPRLLIYGASNLESGVPARFSGSGSGTDFTLTISSLEPEDFAVYFCQQSWNDPFTFGQGTKLEIKGGGSGRTVAAPSVFIFPPSDEQLKSGTASVVCLLNNFYPREAKVQWKVDNALQSGNSQESVTEQDSKDSTYSLSSTLTLSKADYEKHKVYACEVTHQGLSSPVTKSFNRGEC
B4: CODV010 cross-over DVD-Ig (PR-1571823) (bispecific antibody, human IgG1, kappa, L234A L235A)
heavy: EVTLRESGPALVKPTQTLTLTCTFSGFSLSTYGMGVGWIRQPPGKALEWLANIWWDDDKYYNPSLKNRLTISKDTSKNQVVLTMTNMDPVDTATYYCARIESIGTTYSFDYWGQGTMVTVSSGEVQLVQSGSELKKPGASVKVSCKASGYTFTNYGMYWVRQAPGQGLEWMGWINTETGKPTYADDFKGRFVFSLDTSVSTAYLQISSLKAEDTAVYYCARTNYYYRSYIFYFDYWGQGTMVTVSSGGASTKGPSVFPLAPSSKSTSGGTAALGCLVKDYFPEPVTVSWNSGALTSGVHTFPAVLQSSGLYSLSSVVTVPSSSLGTQTYICNVNHKPSNTKVDKKVEPKSCDKTHTCPPCPAPEAAGGPSVFLFPPKPKDTLMISRTPEVTCVVVDVSHEDPEVKFNWYVDGVEVHNAKTKPREEQYNSTYRVVSVLTVLHQDWLNGKEYKCKVSNKALPAPIEKTISKAKGQPREPQVYTLPPSREEMTKNQVSLTCLVKGFYPSDIAVEWESNGQPENNYKTTPPVLDSDGSFFLYSKLTVDKSRWQQGNVFSCSVMHEALHNAYTQKSLSLSPGK
light: DTVLTQSPATLSLSPGERATLSCRASESVSTHMHWYQQKPGQAPRLLIYGASNLESGVPARFSGSGSGTDFTLTISSLEPEDFAVYFCQQSWNDPFTFGQGTKLEIKGGGSGGGEFVLTQSPGTLSLSPGERATLSCERSSGDIGDSYVSWYQQKPGQAPRLVIYADDQRPSGIPDRFSGSGSGTDFTLTISRLEPEDFAVYYCQSYDINIDIVFGGGTKVEIKGGGSGRTVAAPSVFIFPPSDEQLKSGTASVVCLLNNFYPREAKVQWKVDNALQSGNSQESVTEQDSKDSTYSLSSTLTLSKADYEKHKVYACEVTHQGLSSPVTKSFNRGEC

These binders were tested against recombinant human PDGF-BB (human, UniProt P01127 82-190) (assay: cell-based or functional assay).
Chain of recombinant human PDGF-BB (P01127 82-190 limits assumed): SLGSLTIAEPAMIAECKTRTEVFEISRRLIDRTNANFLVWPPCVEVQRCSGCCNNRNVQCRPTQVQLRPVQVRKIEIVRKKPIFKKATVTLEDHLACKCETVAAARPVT

Binder | NIH-3T3 hPDGF-BB Potency IC50
B1 | 0.572 nM
B2 | > 5 nM
B3 | 0.043 nM
B4 | 2.14 nM
